This note sets out measurements from the supplement of paper PMC11246515.

± gives the standard deviation of the averaged measurements.

This data set is described as follows: total protein half-life in vivo (active degradation + dilution); higher = more stable protein.
[1] abbreviates: wild type E. coli NCM3722, growth: C-lim chemostat, doubling time 3 h.
Setting [2] is: wild type E. coli NCM3722, growth: C-lim chemostat, doubling time 12 h.
Setting [3] is: E. coli NCM3722 delta-clpP delta-lon delta-hslV, growth: N-lim chemostat, doubling time 6 h.
[4] abbreviates: E. coli NCM3722 delta-smpB, growth: N-lim chemostat, doubling time 6 h.
Where [5] appears, read: E. coli NCM3722 delta-hslV, growth: N-lim chemostat, doubling time 6 h.
Where [6] appears, read: E. coli NCM3722 delta-lon, growth: N-lim chemostat, doubling time 6 h.
[7] abbreviates: wild type E. coli NCM3722, growth: C-lim chemostat, doubling time 6 h.
The mark [8] stands for this setting: wild type E. coli NCM3722, growth: N-lim chemostat, doubling time 6 h.
Setting [9] is: wild type E. coli NCM3722, growth: N-lim chemostat, doubling time 12 h.
[10] abbreviates: wild type E. coli NCM3722, growth: P-lim chemostat, doubling time 6 h.
Setting [11] is: wild type E. coli NCM3722, growth: P-lim chemostat, doubling time 12 h.
[12] abbreviates: E. coli NCM3722 delta-clpP, growth: N-lim chemostat, doubling time 6 h.

As for “MALIVEFICELPNGVHARPASHVETLCNTFSSQIEWHNLRTDRKGNAKSALALIGTDTLAGDNCQLLISGADEQEAHQRLSQWLRDEFPHCDAPLAEVKSDELEPLPVSLTNLNPQIIRARTVCSGSAGGILTPISSLDLNALGNLPAAKGVDAEQSALENGLTLVLKNIEFRLLDSDGATSAILEAHRSLAGDTSLREHLLAGVSAGLSCAEAIVASANHFCEEFSRSSSSYLQERALDVRDVCFQLLQQIYGEQRFPAPGKLTQPAICMADELTPSQFLELDKNHLKGLLLKSGGTTSHTVILARSFNIPTLVGVDIDALTPWQQQTIYIDGNAGAIVVEPGEAVARYYQQEARVQDALREQQRVWLTQQARTADGIRIEIAANIAHSVEAQAAFGNGAEGVGLFRTEMLYMDRTSAPGESELYNIFCQALESANGRSIIVRTMDIGGDKPVDYLNIPAEANPFLGYRAVRIYEEYASLFTTQLRSILRASAHGSLKIMIPMISSMEEILWVKEKLAEAKQQLRNEHIPFDEKIQLGIMLEVPSVMFIIDQCCEEIDFFSIGSNDLTQYLLAVDRDNAKVTRHYNSLNPAFLRALDYAVQAVHRQGKWIGLCGELGAKGSVLPLLVGLGLDELSMSAPSIPAAKARMAQLDSRECRKLLNQAMACRTSLEVEHLLAQFRMTQQDAPLVTAECITLESDWRSKEEVLKGMTDNLLLAGRCRYPRKLEADLWAREAVFSTGLGFSFAIPHSKSEHIEQSTISVARLQAPVRWGDDEAQFIIMLTLNKHAAGDQHMRIFSRLARRIMHEEFRNALVNAASADAIASLLQHELEL”, the “total protein half-life in vivo” value under setting [1] was 2.7 h and the “total protein half-life in vivo” value under setting [2] stood at 7.46 h.
As to “MNIKIAALTLAIASGISAQWAIAADMPASPAPTIPVKQYVTQVNADNSVTFRYFAPGAKNVSVVVGVPVPDNIHPMTKDEAGVWSWRTPILKGNLYEYFFNVDGVRSIDTGTAMTNPQRQVNSSMILVPGSYLDTRSVAHGDLIAITYHSNALQSERQMYVWTPPGYTGMGEPLPVLYFYHGFGDTGRSAIDQGRIPQIMDNLLAEGKIKPMLVVIPDTETDAKGIIPEDFVPQERRKVFYPLNAKAADRELMNDIIPLISKRFNVRKDADGRALAGLSQGGYQALVSGMNHLESFGWLATFSGVTTTTVPDEGVAARLNDPAAINQQLRNFTVVVGDKDVVTGKDIAGLKTELEQKKINFDYQEYPGLNHEMDVWRPAYAAFVQKLFK”, the “total protein half-life in vivo” value by setting is: under setting [3], 4.45 h; under setting [4], 3.45 ± 0.76 h.
As for “MKALSPIAVLISALLLQGCVAAAVVGTAAVGTKAATDPRSVGTQVDDGTLEVRVNSALSKDEQIKKEARINVTAYQGKVLLVGQSPNAELSARAKQIAMGVDGANEVYNEIRQGQPIGLGEASNDTWITTKVRSQLLTSDLVKSSNVKVTTENGEVFLMGLVTEREAKAAADIASRVSGVKRVTTAFTFIK”, the “total protein half-life in vivo” value by setting is: under setting [3], 5.42 ± 0.59 h; under setting [5], 6.43 ± 0.3 h; under setting [6], 6.34 ± 0.34 h; under setting [4], 5.71 ± 0.1 h; under setting [1], 3.05 ± 0.21 h; under setting [7], 5.72 ± 0.47 h. Besides, the “total protein half-life in vivo” value amounted to 10.5 ± 1.7 h under setting [2]; 5.86 ± 0.3 h under setting [8]; 11.9 ± 0.14 h under setting [9]; 5.78 ± 0.22 h under setting [10]; 12.3 ± 0.21 h under setting [11].
For “MKATSEELAIFVSVVESGSFSRAAEQLGQANSAVSRAVKKLEMKLGVSLLNRTTRQLSLTEEGERYFRRVQSILQEMAAAESEIMETRNTPRGLLRIDAATPVVLHFLMPLIKPFRERYPEVTLSLVSSETIINLIERKVDVAIRAGTLTDSSLRARPLFNSYRKIIASPDYISRYGKPETIDDLKQHICLGFTEPASLNTWPIARSDGQLHEVKYGLSSNSGETLKQLCLSGNGIACLSDYMIDKEIARGELVELMADKVLPVEMPFSAVYYSDRAVSTRIRAFIDFLSEHVKTAPGGAVREA”, the “total protein half-life in vivo” value under setting [3] came out at 6.4 ± 0.2 h; the “total protein half-life in vivo” value under setting [5] stood at 5.5 ± 1.2 h; the “total protein half-life in vivo” value under setting [6] is 5.97 ± 0.94 h; the “total protein half-life in vivo” value under setting [4] was 5.67 ± 0.07 h; the “total protein half-life in vivo” value under setting [1] turned out to be 3.33 ± 0.26 h; the “total protein half-life in vivo” value under setting [7] came out at 5.1 ± 0.3 h. Besides, the “total protein half-life in vivo” value under setting [2] is 12.7 ± 0.46 h; the “total protein half-life in vivo” value under setting [8] turned out to be 6.02 ± 0.12 h; the “total protein half-life in vivo” value under setting [9] is 11.3 ± 0.32 h; the “total protein half-life in vivo” value under setting [10] was 5.75 ± 0.71 h; the “total protein half-life in vivo” value under setting [11] worked out at 12 ± 1.9 h.
For “MQKREPVIIAPDYTDDELYEWMRQKINAAQDLKWANEARAKQAENLSALEQDITNLEKAAALSIARMITYPR”, under setting [1], the “total protein half-life in vivo” value amounted to 3.16 h.
Take “MNPTRYARICEMLARRQPDLTVCMEQVHKPHNVSAIIRTADAVGVHEVHAVWPGSRMRTMASAAAGSNSWVQVKTHRTIGDAVAHLKGQGMQILATHLSDNAVDFREIDYTRPTCILMGQEKTGITQEALALADQDIIIPMIGMVQSLNVSVASALILYEAQRQRQNAGMYLRENSMLPEAEQQRLLFEGGYPVLAKVAKRKGLPYPHVNQQGEIEADADWWATMQAAG [P0AGJ2]”: the “total protein half-life in vivo” value runs as follows: under setting [12], 5.55 h; under setting [5], 5.14 ± 0.28 h; under setting [6], 5.86 h; under setting [4], 4.84 ± 0.18 h; under setting [1], 2.85 ± 0.62 h; under setting [7], 5.7 ± 0.66 h. Moreover, the “total protein half-life in vivo” value was determined as 10.7 ± 1.5 h under setting [2]; 5.5 ± 0.66 h under setting [8]; 10 ± 0.54 h under setting [9]; 5.8 ± 0.23 h under setting [10]; 12.5 ± 0.089 h under setting [11].
For the sequence “MNYRIIPVTAFSQNCSLIWCEQTRLAALVDPGGDAEKIKQEVDDSGLTLMQILLTHGHLDHVGAAAELAQHYGVPVFGPEKEDEFWLQGLPAQSRMFGLEECQPLTPDRWLNEGDTISIGNVTLQVLHCPGHTPGHVVFFDDRAKLLISGDVIFKGGVGRSDFPRGDHNQLISSIKDKLLPLGDDVIFIPGHGPLSTLGYERLHNPFLQDEMPVW”, the “total protein half-life in vivo” value reads like this: under setting [3], 4.63 ± 0.21 h; under setting [12], 5.7 ± 1.5 h; under setting [5], 3.09 ± 0.2 h; under setting [6], 4.23 ± 0.31 h; under setting [4], 3.17 ± 0.34 h; under setting [7], 6.22 ± 1.2 h. Also, the “total protein half-life in vivo” value is, setting by setting: under setting [2], 9.88 ± 0.89 h; under setting [8], 3.73 ± 0.55 h; under setting [9], 4.36 ± 0.79 h; under setting [10], 5.05 ± 0.39 h; under setting [11], 9.46 ± 1.1 h.
